Measurements as given in US20250361274A1, “PEPTIDE AND PEPTIDE-CONTAINING AGENT” (PEPTIDREAM INC., priority 2022, published 2025).
Numbered stars: 1 amine (or outer) side, 2 acyl side, 3 side chain; on linkers, the order of the positions; unused ones are H or OH. Bridge positions count the residues as written; N and C are the ends. Square brackets hold non-standard residues; d marks the D form. Ends that are not written are not given here. Bph3OMe = (S)-2-amino-3-(3'-methoxy-[1,1'-biphenyl]-4-yl)propanoic acid, COc1cccc(-c2ccc(C[C@H](N[*:1])C(=O)[*:2])cc2)c1; KCOpipzaa = N6-(4-(carboxymethyl)piperazine-1-carbonyl)-L-lysine, O=C(NCCCC[C@H](N[*:1])C(=O)[*:2])N1CCN(CC(=O)[*:3])CC1; Bph3C = (S)-2-amino-3-(3'-chloro-[1,1'-biphenyl]-4-yl)propanoic acid, O=C([C@H](Cc1ccc(-c2cccc(Cl)c2)cc1)N[*:1])[*:2]; Bph3F = (S)-2-amino-3-(3'-fluoro-[1,1'-biphenyl]-4-yl)propanoic acid, O=C([C@H](Cc1ccc(-c2cccc(F)c2)cc1)N[*:1])[*:2]; Cha4tH = (S)-2-amino-3-((1r,4S)-4-hydroxycyclohexyl)propanoic acid, O=C([C@H](C[C@H]1CC[C@H](O[*:3])CC1)N[*:1])[*:2]; pBph2F = (S)-2-amino-3-(2-fluoro-[1,1'-biphenyl]-4-yl)propanoic acid, O=C([C@H](Cc1ccc(-c2ccccc2)c(F)c1)N[*:1])[*:2]; pBph3F = (S)-2-amino-3-(3-fluoro-[1,1'-biphenyl]-4-yl)propanoic acid, O=C([C@H](Cc1ccc(-c2ccccc2)cc1F)N[*:1])[*:2]; Phe(4-(4-F-Ph)) = N[C@@H](Cc1ccc(-c2ccc(F)cc2)cc1)C(=O)O; 3Pal(6-Ph) = N[C@@H](Cc1ccc(-c2ccccc2)nc1)C(=O)O; Phe(4-COOH) = N[C@@H](Cc1ccc(C(=O)O)cc1)C(=O)O; Bip = N[C@@H](Cc1ccc(-c2ccccc2)cc1)C(=O)O; Ala(4-THP) = N[C@@H](CC1CCOCC1)C(=O)O; Gly(4-THP) = N[C@H](C(=O)O)C1CCOCC1; Hyp = O=C(O)[C@@H]1C[C@@H](O)CN1; 4Pal = N[C@@H](Cc1ccncc1)C(=O)O; Cba = N[C@@H](CC1CCC1)C(=O)O; Chg = N[C@H](C(=O)O)C1CCCCC1

Columns and labels:
BMP4 = biological target: T1, BMP4 (Homo sapiens, UniProt P12644); assay: BMP4 signal transduction inhibitory activity: SMAD1 phosphorylation by BMP4 stimulus, AlphaLISA SureFire, A549 cells; format: cell-based
T1 sequence (P12644 293-408): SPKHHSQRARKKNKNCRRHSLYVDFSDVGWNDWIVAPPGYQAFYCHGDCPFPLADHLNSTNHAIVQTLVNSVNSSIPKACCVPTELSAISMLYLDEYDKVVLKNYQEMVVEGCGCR

BMP7 = biological target: T2, BMP7 (Homo sapiens, UniProt P18075); assay: BMP7 signal transduction inhibitory activity: SMAD1 phosphorylation by BMP7 stimulus, A549 cells; format: cell-based
T2 sequence (P18075 293-431): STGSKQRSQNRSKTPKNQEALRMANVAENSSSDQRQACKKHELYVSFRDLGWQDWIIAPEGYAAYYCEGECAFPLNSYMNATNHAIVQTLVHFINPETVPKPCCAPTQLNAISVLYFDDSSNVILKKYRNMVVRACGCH
Outline: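 Inhibition is read as reduced BMP7-driven SMAD1 phosphorylation in human A549 cells, with the BMP7 stimulus at 10 nM. Three-point peptide concentrations spanned 1–1,000 nM depending on the peptide series. Some peptides received eight-point, 1/3-ratio titrations from 100 nM or 1,000 nM, alongside a Noggin control.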

[1] = BMP4 0.2 nM stimulus, peptide conc. in assay 0.02, 0.2, 2 nM, class symbols
[2] = BMP7 10 nM stimulus, peptide conc. in assay 100, 300, 1000 nM, class symbols
[3] = BMP7 10 nM stimulus, peptide conc. in assay 10, 100, 1000 nM, class symbols
[4] = BMP4 0.2 nM, peptide 0.02, 0.2, 2 nM, Table 6
[5] = BMP7 10 nM, peptide 10, 100, 1000 nM, Table 6

Substance | aLIZA BMP4 (0.2 nM) % inh (BMP4; [1]) | aLIZA BMP7 (10 nM) % inh (BMP7; [2]) | aLIZA BMP7 (10 nM) % inh (BMP7; [3]) | aLIZA BMP4 (0.2 nM) % inh (BMP4; [4]) | aLIZA BMP7 (10 nM) % inh (BMP7; [5])
288 (ERV[Phe(4-COOH)][Cha4tH][KCOpipzaa]R[3Pal(6-Ph)][KCOpipzaa]Y[Hyp][Bip][4Pal][Phe(4-COOH)][Phe(4-COOH)]SCG-NH2; not fully specified (N-terminus, bridges); also: cyclic peptide, ring not given here) [compound 288] | B (showed less than 30% of inhibitory activity in 0.02 nM-addition zone and showed 30% or more of inhibitory activity in 0.2 nM-addition zone) | F (showed 30% or more of inhibitory activity in 100 nM-addition zone) | – | – | –
289 (ERV[Phe(4-COOH)][Gly(4-THP)][KCOpipzaa]R[3Pal(6-Ph)][KCOpipzaa]Y[Hyp][Bip][4Pal][Phe(4-COOH)][Phe(4-COOH)]SCG-NH2; not fully specified (N-terminus, bridges); also: cyclic peptide, ring not given here) [compound 289] | C (showed less than 30% of inhibitory activity in 0.2 nM-addition zone and showed 30% or more of inhibitory activity in 2 nM-addition zone) | ND (the inhibitory activity was less than 30% at the maximum concentration evaluated) | – | – | –
294 (ERV[Phe(4-COOH)][Cha4tH][KCOpipzaa]R[3Pal(6-Ph)][KCOpipzaa]Y[Hyp][Bip]Y[Phe(4-COOH)][Phe(4-COOH)]SCG-NH2; not fully specified) [compound 294] | B (showed less than 30% of inhibitory activity in 0.02 nM-addition zone and showed 30% or more of inhibitory activity in 0.2 nM-addition zone) | F (showed 30% or more of inhibitory activity in 100 nM-addition zone) | – | – | –
296 (ERV[Phe(4-COOH)]V[KCOpipzaa]R[3Pal(6-Ph)][KCOpipzaa]Y[Hyp][Bph3OMe]Y[Phe(4-COOH)][Phe(4-COOH)]SCG-NH2; not fully specified (N-terminus, bridges); also: cyclic peptide, ring not given here) [compound 296] | B (showed less than 30% of inhibitory activity in 0.02 nM-addition zone and showed 30% or more of inhibitory activity in 0.2 nM-addition zone) | ND (the inhibitory activity was less than 30% at the maximum concentration evaluated) | – | – | –
299 (ERV[Phe(4-COOH)]V[KCOpipzaa]R[3Pal(6-Ph)][KCOpipzaa]Y[Hyp][Phe(4-(4-F-Ph))]Y[Phe(4-COOH)][Phe(4-COOH)]SCG-NH2; not fully specified (N-terminus, bridges); also: cyclic peptide, ring closure not given here) [compound 299] | C (showed less than 30% of inhibitory activity in 0.2 nM-addition zone and showed 30% or more of inhibitory activity in 2 nM-addition zone) | – | ND (the inhibitory activity was less than 30% at the maximum concentration evaluated) | – | –
301 (ERV[Phe(4-COOH)]V[KCOpipzaa]R[3Pal(6-Ph)][KCOpipzaa]Y[Hyp][pBph3F]Y[Phe(4-COOH)][Phe(4-COOH)]SCG-NH2; not fully specified (N-terminus, bridges); also: cyclic peptide, ring closure not given here) [compound 301] | C (showed less than 30% of inhibitory activity in 0.2 nM-addition zone and showed 30% or more of inhibitory activity in 2 nM-addition zone) | – | E (showed less than 30% of inhibitory activity in 100 nM-addition zone and showed 30% or more of inhibitory activity in 1,000 nM-addition zone) | – | –
302 (ERV[Phe(4-COOH)]V[KCOpipzaa]R[3Pal(6-Ph)][KCOpipzaa]Y[Hyp][pBph2F]Y[Phe(4-COOH)][Phe(4-COOH)]SCG-NH2; not fully specified (N-terminus, bridges); also: cyclic peptide, ring closure not given here) [compound 302] | C (showed less than 30% of inhibitory activity in 0.2 nM-addition zone and showed 30% or more of inhibitory activity in 2 nM-addition zone) | – | E (showed less than 30% of inhibitory activity in 100 nM-addition zone and showed 30% or more of inhibitory activity in 1,000 nM-addition zone) | – | –
303 (ERV[Phe(4-COOH)]V[KCOpipzaa]R[Bph3C][KCOpipzaa]Y[Hyp][Bip]Y[Phe(4-COOH)][Phe(4-COOH)]SCG-NH2; not fully specified (N-terminus, bridges); also: cyclic peptide, ring closure not given here) [compound 303] | C (showed less than 30% of inhibitory activity in 0.2 nM-addition zone and showed 30% or more of inhibitory activity in 2 nM-addition zone) | – | E (showed less than 30% of inhibitory activity in 100 nM-addition zone and showed 30% or more of inhibitory activity in 1,000 nM-addition zone) | – | –
306 (ERV[Phe(4-COOH)][Cba][KCOpipzaa]R[3Pal(6-Ph)][KCOpipzaa]Y[Hyp][Bip]Y[Phe(4-COOH)][Phe(4-COOH)]SCG-NH2; not fully specified) [compound 306] | – | – | – | C (showed less than 30% of inhibitory activity in 0.2 nM-addition zone and showed 30% or more of inhibitory activity in 2 nM-addition zone) | E (showed less than 30% of inhibitory activity in 100 nM-addition zone and showed 30% or more of inhibitory activity in 1,000 nM-addition zone)
307 (ERV[Phe(4-COOH)][Chg][KCOpipzaa]R[3Pal(6-Ph)][KCOpipzaa]Y[Hyp][Bip]Y[Phe(4-COOH)][Phe(4-COOH)]SCG-NH2; not fully specified) [compound 307] | – | – | – | C (showed less than 30% of inhibitory activity in 0.2 nM-addition zone and showed 30% or more of inhibitory activity in 2 nM-addition zone) | E (showed less than 30% of inhibitory activity in 100 nM-addition zone and showed 30% or more of inhibitory activity in 1,000 nM-addition zone)
310 (ERV[Phe(4-COOH)][Ala(4-THP)][KCOpipzaa]R[3Pal(6-Ph)][KCOpipzaa]Y[Hyp][Bip]Y[Phe(4-COOH)][Phe(4-COOH)]SCG-NH2; not fully specified (N-terminus, bridges); also: cyclic peptide, ring closure not given here) [compound 310] | – | – | – | C (showed less than 30% of inhibitory activity in 0.2 nM-addition zone and showed 30% or more of inhibitory activity in 2 nM-addition zone) | E (showed less than 30% of inhibitory activity in 100 nM-addition zone and showed 30% or more of inhibitory activity in 1,000 nM-addition zone)
311 ({CH2CO}-ERV[Phe(4-COOH)]V[KCOpipzaa]R[3Pal(6-Ph)][KCOpipzaa]Y[Hyp][Bph3F]Y[Phe(4-COOH)][Phe(4-COOH)]SCG-NH2; thioether N-17 (inferred)) [compound 311] | – | – | – | B (showed less than 30% of inhibitory activity in 0.02 nM-addition zone and showed 30% or more of inhibitory activity in 0.2 nM-addition zone) | E (showed less than 30% of inhibitory activity in 100 nM-addition zone and showed 30% or more of inhibitory activity in 1,000 nM-addition zone)
313 (ERV[Phe(4-COOH)][Cba][KCOpipzaa]R[3Pal(6-Ph)][KCOpipzaa]Y[Hyp][Bph3F]Y[Phe(4-COOH)][Phe(4-COOH)]SCG-NH2; not fully specified) [compound 313] | – | – | – | A (showed 30% or more of inhibitory activity in a zone to which the peptide was added in an amount of 0.02 nM) | E (showed less than 30% of inhibitory activity in 100 nM-addition zone and showed 30% or more of inhibitory activity in 1,000 nM-addition zone)
314 (ERV[Phe(4-COOH)][Cba][KCOpipzaa]R[3Pal(6-Ph)][KCOpipzaa]Y[Hyp][Bph3C]Y[Phe(4-COOH)][Phe(4-COOH)]SCG-NH2; not fully specified) [compound 314] | – | – | – | B (showed less than 30% of inhibitory activity in 0.02 nM-addition zone and showed 30% or more of inhibitory activity in 0.2 nM-addition zone) | E (showed less than 30% of inhibitory activity in 100 nM-addition zone and showed 30% or more of inhibitory activity in 1,000 nM-addition zone)
315 (ERV[Phe(4-COOH)][Cba][KCOpipzaa]R[3Pal(6-Ph)][KCOpipzaa]Y[Hyp][Bip][4Pal][Phe(4-COOH)][Phe(4-COOH)]SCG-NH2) [compound 315] | – | – | – | B (showed less than 30% of inhibitory activity in 0.02 nM-addition zone and showed 30% or more of inhibitory activity in 0.2 nM-addition zone) | E (showed less than 30% of inhibitory activity in 100 nM-addition zone and showed 30% or more of inhibitory activity in 1,000 nM-addition zone)
316 (ERV[Phe(4-COOH)][Cba][KCOpipzaa]R[3Pal(6-Ph)][KCOpipzaa]Y[Hyp][Bph3F][4Pal][Phe(4-COOH)][Phe(4-COOH)]SCG-NH2; not fully specified) [compound 316] | – | – | – | C (showed less than 30% of inhibitory activity in 0.2 nM-addition zone and showed 30% or more of inhibitory activity in 2 nM-addition zone) | ND (the inhibitory activity was less than 30% at the maximum concentration evaluated)
317 (ERV[Phe(4-COOH)][Cba][KCOpipzaa]R[3Pal(6-Ph)][KCOpipzaa]Y[Hyp][Bph3C][4Pal][Phe(4-COOH)][Phe(4-COOH)]SCG-NH2; not fully specified) [compound 317] | – | – | – | B (showed less than 30% of inhibitory activity in 0.02 nM-addition zone and showed 30% or more of inhibitory activity in 0.2 nM-addition zone) | ND (the inhibitory activity was less than 30% at the maximum concentration evaluated)
